System: six V600E BRAF melanoma cell lines
Experiment: Screening of recombinant RTK ligands for ability to confer resistance to BRAFi (PLX4720) or MEKi (PD184352) (Table 4)
Format: cell-based, human
Set-up: ability of recombinant RTK ligand to confer resistance / ability of recombinant RTK ligand to confer resistance (screening value): scale not given here
How it was run: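 Six V600E BRAF melanoma lines treated with PLX4720 or PD184352 after addition of 22 recombinant RTK ligands, scored for drug resistance. Activation of selected RTKs confirmed by western blotting and high-throughput tyrosine kinase phosphorylation profiling.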

B1: flt-3 ligand (FL) (protein, UniProt P49771 27-235, looked up)
Fms-related tyrosine kinase 3 …: TQDCSFQHSPISSDFAVKIRELSDYLLQDYPVTVASNLQDEELCGGLWRLVLAQRWMERLKTVAGSKMQGLLERVNTEIHFVTKCAFQPPPSCLRFVQTNISRLLQETSEQLVALKPWITRQNFSRCLELQCQPDSSTLPPPWSPRPLEATAPTAPQPPLLLLLLLPVGLLLLAAAWCLHWQRTRRRTPRPGEQVPPVPSPQDLLLVEH
- ability of recombinant RTK ligand to confer resistance (A2058, PD184352 - 1 uM, ligand 0.4 ng/ml): 1.03
- ability of recombinant RTK ligand to confer resistance (A2058, PD184352 - 1 uM, ligand 1.6 ng/ml): 0.99
- ability of recombinant RTK ligand to confer resistance (A2058, PD184352 - 1 uM, ligand 6.25 ng/ml): 1.00
- ability of recombinant RTK ligand to confer resistance (A2058, PD184352 - 1 uM, ligand 25 ng/ml): 1.02
- ability of recombinant RTK ligand to confer resistance (A2058, PD184352 - 1 uM, ligand 100 ng/ml): 0.89
- ability of recombinant RTK ligand to confer resistance (A2058, PLX4720 - 2 uM, ligand 0.4 ng/ml): 0.97
- ability of recombinant RTK ligand to confer resistance (A2058, PLX4720 - 2 uM, ligand 1.6 ng/ml): 0.98
- ability of recombinant RTK ligand to confer resistance (A2058, PLX4720 - 2 uM, ligand 6.25 ng/ml): 1.01
- ability of recombinant RTK ligand to confer resistance (A2058, PLX4720 - 2 uM, ligand 25 ng/ml): 1.06
- ability of recombinant RTK ligand to confer resistance (A2058, PLX4720 - 2 uM, ligand 100 ng/ml): 0.93
- ability of recombinant RTK ligand to confer resistance (C32, PD184352 - 1 uM, ligand 0.4 ng/ml): 1.02
- ability of recombinant RTK ligand to confer resistance (C32, PD184352 - 1 uM, ligand 1.6 ng/ml): 1.08
- ability of recombinant RTK ligand to confer resistance (C32, PD184352 - 1 uM, ligand 6.25 ng/ml): 1.10
- ability of recombinant RTK ligand to confer resistance (C32, PD184352 - 1 uM, ligand 25 ng/ml): 1.08
- ability of recombinant RTK ligand to confer resistance (C32, PD184352 - 1 uM, ligand 100 ng/ml): 1.07
- ability of recombinant RTK ligand to confer resistance (C32, PLX4720 - 2 uM, ligand 0.4 ng/ml): 0.99
- ability of recombinant RTK ligand to confer resistance (C32, PLX4720 - 2 uM, ligand 1.6 ng/ml): 0.97
- ability of recombinant RTK ligand to confer resistance (C32, PLX4720 - 2 uM, ligand 6.25 ng/ml): 1.00
- ability of recombinant RTK ligand to confer resistance (C32, PLX4720 - 2 uM, ligand 25 ng/ml): 0.87
- ability of recombinant RTK ligand to confer resistance (C32, PLX4720 - 2 uM, ligand 100 ng/ml): 0.97
- ability of recombinant RTK ligand to confer resistance (Colo 829, PD184352 - 1 uM, ligand 0.4 ng/ml): 1.07
- ability of recombinant RTK ligand to confer resistance (Colo 829, PD184352 - 1 uM, ligand 1.6 ng/ml): 0.98
- ability of recombinant RTK ligand to confer resistance (Colo 829, PD184352 - 1 uM, ligand 6.25 ng/ml): 0.97
- ability of recombinant RTK ligand to confer resistance (Colo 829, PD184352 - 1 uM, ligand 25 ng/ml): 1.05
- ability of recombinant RTK ligand to confer resistance (Colo 829, PD184352 - 1 uM, ligand 100 ng/ml): 0.97
- ability of recombinant RTK ligand to confer resistance (Colo 829, PLX4720 - 2 uM, ligand 0.4 ng/ml): 1.08
- ability of recombinant RTK ligand to confer resistance (Colo 829, PLX4720 - 2 uM, ligand 1.6 ng/ml): 0.98
- ability of recombinant RTK ligand to confer resistance (Colo 829, PLX4720 - 2 uM, ligand 6.25 ng/ml): 1.00
- ability of recombinant RTK ligand to confer resistance (Colo 829, PLX4720 - 2 uM, ligand 25 ng/ml): 1.05
- ability of recombinant RTK ligand to confer resistance (Colo 829, PLX4720 - 2 uM, ligand 100 ng/ml): 0.97
- ability of recombinant RTK ligand to confer resistance (G-361, PD184352 - 1 uM, ligand 0.4 ng/ml): 1.04
- ability of recombinant RTK ligand to confer resistance (G-361, PD184352 - 1 uM, ligand 1.6 ng/ml): 1.09
- ability of recombinant RTK ligand to confer resistance (G-361, PD184352 - 1 uM, ligand 6.25 ng/ml): 0.97
- ability of recombinant RTK ligand to confer resistance (G-361, PD184352 - 1 uM, ligand 25 ng/ml): 1.01
- ability of recombinant RTK ligand to confer resistance (G-361, PD184352 - 1 uM, ligand 100 ng/ml): 0.89
- ability of recombinant RTK ligand to confer resistance (G-361, PLX4720 - 2 uM, ligand 0.4 ng/ml): 1.00
- ability of recombinant RTK ligand to confer resistance (G-361, PLX4720 - 2 uM, ligand 1.6 ng/ml): 0.87
- ability of recombinant RTK ligand to confer resistance (G-361, PLX4720 - 2 uM, ligand 6.25 ng/ml): 0.88
- ability of recombinant RTK ligand to confer resistance (G-361, PLX4720 - 2 uM, ligand 25 ng/ml): 0.88
- ability of recombinant RTK ligand to confer resistance (G-361, PLX4720 - 2 uM, ligand 100 ng/ml): 0.79
- ability of recombinant RTK ligand to confer resistance (SK-MEL-5, PD184352 - 1 uM, ligand 0.4 ng/ml): 0.97
- ability of recombinant RTK ligand to confer resistance (SK-MEL-5, PD184352 - 1 uM, ligand 1.6 ng/ml): 0.97
- ability of recombinant RTK ligand to confer resistance (SK-MEL-5, PD184352 - 1 uM, ligand 6.25 ng/ml): 1.00
- ability of recombinant RTK ligand to confer resistance (SK-MEL-5, PD184352 - 1 uM, ligand 25 ng/ml): 0.92
- ability of recombinant RTK ligand to confer resistance (SK-MEL-5, PD184352 - 1 uM, ligand 100 ng/ml): 0.90
- ability of recombinant RTK ligand to confer resistance (SK-MEL-5, PLX4720 - 2 uM, ligand 0.4 ng/ml): 1.07
- ability of recombinant RTK ligand to confer resistance (SK-MEL-5, PLX4720 - 2 uM, ligand 1.6 ng/ml): 1.07
- ability of recombinant RTK ligand to confer resistance (SK-MEL-5, PLX4720 - 2 uM, ligand 6.25 ng/ml): 1.03
- ability of recombinant RTK ligand to confer resistance (SK-MEL-5, PLX4720 - 2 uM, ligand 25 ng/ml): 0.93
- ability of recombinant RTK ligand to confer resistance (SK-MEL-5, PLX4720 - 2 uM, ligand 100 ng/ml): 1.04
- ability of recombinant RTK ligand to confer resistance (SK-MEL-28, PD184352 - 1 uM, ligand 0.4 ng/ml): 1.04
- ability of recombinant RTK ligand to confer resistance (SK-MEL-28, PD184352 - 1 uM, ligand 1.6 ng/ml): 0.95
- ability of recombinant RTK ligand to confer resistance (SK-MEL-28, PD184352 - 1 uM, ligand 6.25 ng/ml): 0.98
- ability of recombinant RTK ligand to confer resistance (SK-MEL-28, PD184352 - 1 uM, ligand 25 ng/ml): 0.78
- ability of recombinant RTK ligand to confer resistance (SK-MEL-28, PD184352 - 1 uM, ligand 100 ng/ml): 0.99
- ability of recombinant RTK ligand to confer resistance (SK-MEL-28, PLX4720 - 2 uM, ligand 0.4 ng/ml): 0.94
- ability of recombinant RTK ligand to confer resistance (SK-MEL-28, PLX4720 - 2 uM, ligand 1.6 ng/ml): 0.90
- ability of recombinant RTK ligand to confer resistance (SK-MEL-28, PLX4720 - 2 uM, ligand 6.25 ng/ml): 0.86
- ability of recombinant RTK ligand to confer resistance (SK-MEL-28, PLX4720 - 2 uM, ligand 25 ng/ml): 0.82
- ability of recombinant RTK ligand to confer resistance (SK-MEL-28, PLX4720 - 2 uM, ligand 100 ng/ml): 0.98

Reference: US20140348819A1, “Methods of Treating Cancer” (Dana-Farber Cancer Institute, Inc., priority 2011, published 2014)
